Test results reported in the supplement of paper PMC7877785.
± gives the uncertainty stated by the source.

Experiment: self-splicing fitness, log relative to wild type (ln ratio); higher = more splicing; Tetrahymena group I intron in knt gene, E. coli kanamycin selection, DiMSum; sequences stand for … in CUCUCU…GGAGGGAAAAGUUAUCAGGCAUGCACCUGGUAGCUAGUCUUUAAACCAAUAGAUUGCAUCGGUUUAAAAGGCAAGACCGUCAAAUUGCGGGAAAGGGGUCAACAGCCGUUCAGUACCAAGUCUCAGGGGAAACUUUGAGAUGGCCUUGCAAAGGGUAUGGUAAUAAGCUGACGGACAUGGUCCUAACCACGCAGCCAAGUCCUAAGUCAACAGAUCUUCUGUUGAUAUGGAUGCAGUUCACAGACUAAAUGUCGGUCGGGGAAGAUGUAUUCUUCUCAUAAGAUAUAGUCGGACCUCUCCUUAAUGGGAGCUAGCGGAUGAAGUGAUGCAACACUGGAGCCGCUGGGAACUAAUUUGUAUGCGAAAGUAUAUUGAUUAGUUUUGGAGUACUCGUGGUCG
In short: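 Fitness was computed with DiMSum as the error-weighted combination of replicate fold changes, kanamycin versus none, each normalised to wild type. The library randomised all eight intron nucleotides of the P1ex region, with the intron placed in the knt kanamycin-resistance gene on pET-22b(+) in E. coli BL21(DE3). Six replicate transformations were grown overnight at 37°C or 30°C on LB agar with or without 25 μg/mL kanamycin, plus 100 μg/mL carbenicillin, 50 μM IPTG and 0.2% rhamnose. Pooled colonies were amplicon-sequenced on an Illumina HiSeq 2500.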

Sequence | self-splicing fitness (ln) (30 °C) | self-splicing fitness (ln) (37 °C)
UGUUAGCAAUAUUACGGCCU | -0.213 ± 0.27 | 0.286 ± 0.25
UGUUAGCAAUAUUACGGGGU | -2.47 ± 0.26 | 
UGUUAGCAAUAUUACGGUGG | -1.95 ± 0.16 | -0.147 ± 0.16
UGUUAGCAAUAUUACGGUGU | -2.57 ± 0.17 | -1.92 ± 0.18
UGUUAGCAAUAUUACGUGAC | -2.93 ± 0.31 | -2.01 ± 0.29
UGUUAGCAAUAUUACGUGAG | -1.02 ± 0.051 | -0.331 ± 0.065
UGUUAGCAAUAUUACGUGAU | -1.77 ± 0.14 | -1.96 ± 0.25
UUAAAGCAAUAUUACGAAAU | -3.49 ± 0.3 | -2.12 ± 0.24
UUAAAGCAAUAUUACGAAGU | -3.67 ± 0.44 | -2.47 ± 0.39
UUAAAGCAAUAUUACGAAUA | -1.71 ± 0.088 | -0.164 ± 0.12
UUAAAGCAAUAUUACGACGC | -0.776 ± 0.077 | 0.177 ± 0.11
UUAAAGCAAUAUUACGAUCA | 0.0315 ± 0.083 | 0.412 ± 0.097
UUAAAGCAAUAUUACGAUGU | -1.91 ± 0.1 | -0.671 ± 0.15
UUAAAGCAAUAUUACGAUUU | -0.89 ± 0.063 | 0.0458 ± 0.099
UUAAAGCAAUAUUACGCCAU | -2.96 ± 0.17 | -1.14 ± 0.15
UUAAAGCAAUAUUACGCCGA | -0.193 ± 0.12 | 0.491 ± 0.15
UUAAAGCAAUAUUACGCCUA | 0.0988 ± 0.091 | 0.8 ± 0.14

Sequence | self-splicing fitness (ln) (30 °C) | self-splicing fitness (ln) (37 °C)
UUAAAGCAAUAUUACGCCUU | -1.96 ± 0.18 | -1.28 ± 0.19
UUAAAGCAAUAUUACGCGCA | -0.137 ± 0.072 | -0.0874 ± 0.1
UUAAAGCAAUAUUACGCUCA | 0.0308 ± 0.097 | 0.489 ± 0.14
UUAAAGCAAUAUUACGCUGA | -0.633 ± 0.098 | -0.46 ± 0.14
UUAAAGCAAUAUUACGCUGG | -0.4 ± 0.11 | -0.152 ± 0.12
UUAAAGCAAUAUUACGGAAG | -1.67 ± 0.087 | -0.452 ± 0.11
UUAAAGCAAUAUUACGGACU | -0.204 ± 0.096 | -0.0989 ± 0.11
UUAAAGCAAUAUUACGGAGG | -1.34 ± 0.12 | -1.27 ± 0.17
UUAAAGCAAUAUUACGGAUG | -0.473 ± 0.074 | -0.418 ± 0.1
UUAAAGCAAUAUUACGGCAG | 0.129 ± 0.086 | 0.214 ± 0.11
UUAAAGCAAUAUUACGGCCU | -0.459 ± 0.12 | 0.567 ± 0.16
UUAAAGCAAUAUUACGGGUC | -3.44 ± 0.22 | -2.48 ± 0.24
UUAAAGCAAUAUUACGGUAG | -0.312 ± 0.076 | 0.29 ± 0.11
UUAAAGCAAUAUUACGGUGU | -2.73 ± 0.11 | -1.29 ± 0.1
UUAAAGCAAUAUUACGGUUU | -2.12 ± 0.075 | -1.22 ± 0.097
UUAAAGCAAUAUUACGUGAC | -1.93 ± 0.15 | -1.91 ± 0.18
